Data reported in patent US20140194367A1, “AGROCYBE AEGERITA LECTIN AAL-2, AND ENCODING GENE THEREOF, PREPARATION METHOD THEREFOR AND APPLICATION THEREOF” (WUHAN ALPHA-OMEGA BIOLOGY TECHNOLOGY CO., LTD(CN), priority 2011, published 2014).
“Also recorded” adds a separate entry of the source.

What was measured:
[1] = Glycochip binding, glycan 339
Description: (§1) In order to identify the carbohydrate binding activity of Agrocybe aegerita lectin AAL-2, the Agrocybe aegerita lectin AAL-2 is used to detect 465 kinds of carbohydrate by the glycochip technology.
(§2) Firstly, the purified Agrocybe aegerita lectin AAL-2 (isolated in example 1) is labeled with the biotin and 200 μg/mL AAL-2 incubates the glycochip, then the fluorescein labeled streptavidin combines with the biotin labeled AAL-2. Results are shown in Table 4 (different carbohydrate affinity of AAL-2 arranged from high to low (top of 23 carbohydrates)).

[2] = Glycochip binding, glycan 309; settings: glycan number 309; 200 μg/mL AAL-2
Description: as §1, §2

[3] = Glycochip binding, glycan 180
Description: as §1, §2

[4] = Glycochip binding, glycan 337
Description: as §1, §2

[5] = Glycochip binding, glycan 190; settings: glycan number 190; 200 μg/mL AAL-2
Description: as §1, §2

[6] = Glycochip binding, glycan 171
Description: as §1, §2

[7] = Glycochip binding, glycan 172
Description: as §1, §2

[8] = Glycochip binding, glycan 407
Description: as §1, §2

[9] = Glycochip binding, glycan 338
Description: as §1, §2

H22 = assay: AAL-2 induced apoptosis of H22 cells, Annexin V/PI flow cytometry; type: cell-based, mouse; settings: 0.6, 1.2, 2.4 μmol/L; 24 hours and 36 hours; FIG. 6A
Description: (§3) The experiment detects the killing activity of Agrocybe aegerita lectin AAL-2 (isolated protein in example 1) to the two tumor cell lines (H22, Huh7). H22 and Huh7 cell lines (purchased from ATCC) are cultured in RPMI1640 medium and DMEM medium (contains 10% fetal bovine serum, […] and 100 U/mL penicillin). Different concentrations of Agrocybe aegerita lectin AAL-2 prepared in the example 1 are added into tumor cells (final concentration is 0.6 μmol/L, 1.2 μmol/L, 2.4 μmol/L) and cultured for 24 hours and 36 hours, respectively. The treated cells are digested into single cell, stained with the Annexin V/PI dye and detected by the flow cytometry.

[10] = Glycochip binding, glycan 341
Description: as §1, §2

[11] = Glycochip binding, glycan 308
Description: as §1, §2

[12] = Carbohydrate binding specificity by glycochip technology; settings: biotin labeled AAL-2, 200 μg/mL
Description: as §1, §2

[13] = Glycochip binding, glycan 94
Description: as §1, §2

[14] = Glycochip binding, glycan 340
Description: as §1, §2

[15] = Glycochip binding, glycan 181
Description: as §1, §2

[16] = Glycochip binding, glycan 179
Description: as §1, §2

[17] = Glycochip binding, glycan 182
Description: as §1, §2

[18] = Glycochip binding, glycan 178
Description: as §1, §2

[19] = system: mouse hepatoma cell line H22; assay: Tumor growth of H22 tumor bearing mice, in situ tumour injection; type: in vivo, BALB/c mice; settings: 5 mg/kg in situ tumour injection every other day, 7 injections
Description: In this experiment, the BALB/c mice (6-8weeks old, 20 g) are used for the antitumour activity assay. 0.1 ml mouse hepatoma cell line H22 (1×10^7 cells/mL) is subcutaneously inoculated into the oxter area of the BALB/c mice. 7 days after inoculation, inject the Agrocybe aegerita lectin AAL-2 by in situ tumour (protein isolated in example 1) (5 mg/kg, 0.1 ml/mouse). The control group is treated with 0.9% NaCl. Then take the injection every other day, a total of 7 injections, and record the size of the tumor tissue in mice. Tumor size=tumor tissue length L×width W^2/2.

Huh7 = assay: AAL-2 induced apoptosis of Huh7 cells, Annexin V/PI flow cytometry; type: cell-based; settings: 0.6, 1.2, 2.4 μmol/L; 24 hours and 36 hours; FIG. 6B
Description: as §3

[20] = Glycochip binding, glycan 17; settings: glycan number 17; 200 μg/mL AAL-2
Description: as §1, §2

[21] = Glycochip binding, glycan 88
Description: as §1, §2

[22] = Glycochip binding, glycan 176; settings: glycan number 176; 200 μg/mL AAL-2
Description: as §1, §2

[23] = Glycochip binding, glycan 336
Description: as §1, §2

[24] = Glycochip binding, glycan 177; settings: glycan number 177; 200 μg/mL AAL-2
Description: as §1, §2

[25] = Glycochip binding, glycan 175
Description: as §1, §2

[26] = rank of affinity, carbohydrate spectrum of AAL-2

B1: AAL-2: new lectin isolated from Agrocybe aegerita total protein by affinity chromatography; amino acid sequence SEQ ID NO: 2; 43 kDa monomer (protein, listed as Agrocybe aegerita)
chain: MTSNVITQDLPIPVASRGFADIVGFGLDGVVIGRNAVNLQPFLAVKNFAQNAGGWLTTKHVRLIADTTGTGKGDIVGFGNAGVYVSVNNGKNTFADPPKMVIANFGYDAGGWRVEKHLRYLADIRKIGRADIIGFGEKGVLVSRNNGGLNFGPATLVLKDFGYDAGGWRLDRHLRFLADVTGNGHLDIVGFGDKHVFISRNNGDGTFAPAKSVIDNFCIDAGGWKIGDHPRFVADLTGDGTADIIGCGKAGCWVALNNGGGVFGQVKLVINDFGTDKGWQAAKHPRFIADLTGNGRGDVVGFGNAGVYVALNNGDGTFQSAKLVLKDFGVQQGWTVSKHRRFVVDLTGDGCADIIGFGEKETLVSYNDGKGNFGPVKALTNDFSFSGGKWAPETTVCWMANLDSSRH
[1]; glycan number 339, 200 μg/mL AAL-2
  average: 20868
[1]; [26]
  order (glycosyl structure affinity of top 18): 4
[2]
  average: 6078
[3]; glycan number 180, 200 μg/mL AAL-2
  average: 17289
[3]; [26]
  order (glycosyl structure affinity of top 18): 9
[4]; glycan number 337, 200 μg/mL AAL-2
  average: 19030
[4]; [26]
  order (glycosyl structure affinity of top 18): 7
[5]
  average: 5571
[6]; glycan number 171, 200 μg/mL AAL-2
  average: 24487
[6]; [26]
  order (glycosyl structure affinity of top 18): 2
[7]; glycan number 172, 200 μg/mL AAL-2
  average: 19311
[7]; [26]
  order (glycosyl structure affinity of top 18): 6
[8]; glycan number 407, 200 μg/mL AAL-2
  average: 6992
[8]; [26]
  order (glycosyl structure affinity of top 18): 18
[9]; glycan number 338, 200 μg/mL AAL-2
  average: 16141
[9]; [26]
  order (glycosyl structure affinity of top 18): 10
H22
  apoptosis of H22 cells: apoptosis inducing activity depends on the concentration; also recorded: significantly cause two hepatoma cell lines apoptosis
[10]; glycan number 341, 200 μg/mL AAL-2
  average: 11672
[10]; [26]
  order (glycosyl structure affinity of top 18): 11
[11]; glycan number 308, 200 μg/mL AAL-2
  average: 11572
[11]; [26]
  order (glycosyl structure affinity of top 18): 12
[12]
  carbohydrate binding specificity: specifically preferentially bind to carbohydrates with N-Acetylglucosamine as the terminal
[13]; glycan number 94, 200 μg/mL AAL-2
  average: 11198
[13]; [26]
  order (glycosyl structure affinity of top 18): 13
[14]; glycan number 340, 200 μg/mL AAL-2
  average: 8758
[14]; [26]
  order (glycosyl structure affinity of top 18): 14
[15]; glycan number 181, 200 μg/mL AAL-2
  average: 18737
[15]; [26]
  order (glycosyl structure affinity of top 18): 8
[16]; glycan number 179, 200 μg/mL AAL-2
  average: 19530
[16]; [26]
  order (glycosyl structure affinity of top 18): 5
[17]; glycan number 182, 200 μg/mL AAL-2
  average: 8464
[17]; [26]
  order (glycosyl structure affinity of top 18): 16
[18]; glycan number 178, 200 μg/mL AAL-2
  average: 7339
[18]; [26]
  order (glycosyl structure affinity of top 18): 17
[19]; FIG. 7A
  tumor growth (tumor size): significantly inhibited; also recorded: inhibit the tumor growth
[19]; FIG. 7B
  survival time of tumor bearing mice: prolonged obviously; also recorded: prolong the survival time
Huh7
  apoptosis of Huh7 cells: apoptosis inducing activity depends on the concentration; also recorded: significantly cause two hepatoma cell lines apoptosis
[20]
  average: 5331
[21]; glycan number 88, 200 μg/mL AAL-2
  average: 8504
[21]; [26]
  order (glycosyl structure affinity of top 18): 15
[22]
  average: 5896
[23]; glycan number 336, 200 μg/mL AAL-2
  average: 30519
[23]; [26]
  order (glycosyl structure affinity of top 18): 1
[24]
  average: 5782
[25]; glycan number 175, 200 μg/mL AAL-2
  average: 21115
[25]; [26]
  order (glycosyl structure affinity of top 18): 3
